In assay [1] the target is T1, CD56 (UniProt P13591 20-858, limits assumed). As to the kind of experiment: cell-based or functional assay.
The target of a further assay is T2, HER2 (UniProt P04626 23-1255, limits assumed).
T2 construct: whole, on cells; SK-BR-3 (SKBR3) cells, CD56-negative control line
In words: immunocytochemistry with peroxidase secondary antibody, SKBR3 cells (HER2-positive, no CD56); '-' = absence of fixation.

Assay [2] deals with T1, CD56. In words: cell-based or functional assay. The source holds these as a separate data set.
The target in assay [3] is T1, CD56. In words: cell-based or functional assay. The source holds these as a separate data set.

B1: MF-m906-MMAE (antibody, human IgG1, kappa)
heavy: not shown
light: DVVMTQSPLSLPVTPGEPASISCRSSQSLLHSNGYNFLDWYLQKPGQSPQLLIYLGSNRASGVPDRFSGSGSGTDFTLKISRVEADDVGVYYCMQSLQTPWTFGHGTKVEIKRTVAAPSVFIFPPSDEQLKSGTASVVCLLNNFYPREAKVQWKVDNALQSGNSQESVTEQDSKDSTYSLSSTLTLSKADYEKHKVYACEVTHQGLSSPVTKSFNRGEC
modifications: MMAE linker-drug (pyridine-caproic-ValCit-PABc-MMAE, compound 8) grafted on interchain cysteines; mean DAR 3.89
Take B1: in the assay with CD56 [1], the “IC50, XTT cytotoxicity test, H69 small cell lung carcinoma line” value was 1 to 2 nM.

B2: m906 (antibody, human IgG1, kappa)
heavy: not shown
light: DVVMTQSPLSLPVTPGEPASISCRSSQSLLHSNGYNFLDWYLQKPGQSPQLLIYLGSNRASGVPDRFSGSGSGTDFTLKISRVEADDVGVYYCMQSLQTPWTFGHGTKVEIKRTVAAPSVFIFPPSDEQLKSGTASVVCLLNNFYPREAKVQWKVDNALQSGNSQESVTEQDSKDSTYSLSSTLTLSKADYEKHKVYACEVTHQGLSSPVTKSFNRGEC
notes: also called mAb-001; anti-CD56 antibody m906
For the molecule B2, the binding result with HER2 is reported as “no binding (tested: 650 ng/mL)”.

B3: MIO-003 (antibody, human IgG1, kappa, N297A)
heavy: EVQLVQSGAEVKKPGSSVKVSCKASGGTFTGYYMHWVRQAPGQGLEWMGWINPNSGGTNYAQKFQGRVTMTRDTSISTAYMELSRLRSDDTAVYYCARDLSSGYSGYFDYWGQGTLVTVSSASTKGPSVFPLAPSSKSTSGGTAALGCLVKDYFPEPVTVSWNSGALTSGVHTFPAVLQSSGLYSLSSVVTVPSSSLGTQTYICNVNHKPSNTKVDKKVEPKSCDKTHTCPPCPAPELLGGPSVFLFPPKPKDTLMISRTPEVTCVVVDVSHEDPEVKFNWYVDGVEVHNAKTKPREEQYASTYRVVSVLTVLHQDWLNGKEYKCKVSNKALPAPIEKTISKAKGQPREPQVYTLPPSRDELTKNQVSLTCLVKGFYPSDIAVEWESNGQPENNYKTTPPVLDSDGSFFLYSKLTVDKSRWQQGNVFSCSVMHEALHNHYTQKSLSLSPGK
light: DVVMTQSPLSLPVTPGEPASISCRSSQSLLHSNGYNFLDWYLQKPGQSPQLLIYLGSNRASGVPDRFSGSGSGTDFTLKISRVEADDVGVYYCMQSLQTPWTFGHGTKVEIKRTVAAPSVFIFPPSDEQLKSGTASVVCLLNNFYPREAKVQWKVDNALQSGNSQESVTEQDSKDSTYSLSSTLTLSKADYEKHKVYACEVTHQGLSSPVTKSFNRGEC
modifications: MMAE linker-drug (pyridine-caproic-ValCit-PABc-MMAE) as in MIO-001; attachment residues not itemised
In the case of B3, in the assay with CD56 [2], the “IC50 (pM), XTT assay, H69 n = 3” value is 1950 pM and the “IC50 (pM), XTT assay, H209 n = 3” value was found to be 22100 pM. Also, in the assay with CD56 [3], the “IC50 (pM), XTT assay, PeTa n = 3” value is 14900 pM and the “IC50 (pM), XTT assay, WaGa n = 3” value came out at 10300 pM.
